US20130028925A1

Biological target: HSV-2 glycoprotein E (gE2) as expressed by wild-type HSV-2 strain 2.12 (infected Cos cells; virion envelope) (Herpes Simplex Virus-2) (UniProt P89475)
Test: rosetting of IgG-coated sheep red blood cells on Cos cells infected with HSV-2 at MOI 2, 12 h; uninfected cells and gE2-deletion virus formed none

UniProt P89475, sequence (P89475 21-545 limits assumed): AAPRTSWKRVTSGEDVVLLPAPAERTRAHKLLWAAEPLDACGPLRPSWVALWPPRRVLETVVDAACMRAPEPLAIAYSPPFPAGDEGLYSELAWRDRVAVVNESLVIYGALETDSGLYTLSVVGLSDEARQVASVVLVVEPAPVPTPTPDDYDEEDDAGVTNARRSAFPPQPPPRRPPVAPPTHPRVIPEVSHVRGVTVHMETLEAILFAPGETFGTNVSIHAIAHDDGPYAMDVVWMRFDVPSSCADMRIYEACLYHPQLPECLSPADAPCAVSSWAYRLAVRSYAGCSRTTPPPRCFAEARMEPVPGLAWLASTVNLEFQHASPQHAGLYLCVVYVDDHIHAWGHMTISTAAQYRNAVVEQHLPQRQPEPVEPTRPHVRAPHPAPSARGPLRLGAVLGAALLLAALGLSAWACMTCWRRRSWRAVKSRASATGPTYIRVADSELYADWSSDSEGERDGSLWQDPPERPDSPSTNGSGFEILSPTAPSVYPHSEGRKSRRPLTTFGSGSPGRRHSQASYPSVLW

Substance “rabbit anti-sheep IgG on sheep red blood cells (IgG-coated red blood cells) (antibody)” has a percent of infected cells forming rosettes of 36%.
